In patent US20230242602:

Assays:
[1] = tested on: ZFP-TF 73133 (R→Q variant anti-tau ZFP-KRAB) (synthetic construct); assay: cell_activity; settings: up to, htau mouse hippocampus, AAV9 highest dose, 3 and 6 months
[2] = tested on: ZFP-TF 65918.T2A.57890 (two co-expressed ZFPs) (synthetic construct); assay: cell_activity; settings: htau mouse hippocampus, 3E9 VG per hemisphere

Substance	activity (% reduction of human tau mRNA) [1]	activity (% reduction of human tau mRNA) [2]	activity (% reduction of mouse tau mRNA) [2]
human MAPT gene target region (around TSS)	93	> 50	
mouse Mapt gene			> 50
